Assays:
Type in all cases: biochemical
[1] = HTP-analysis of supernatants pretreated with bovine serum (MUGal hydrolysis); conditions: activity of the variant/activity of Rd3BB (SEQ ID NO: 13), yeast culture supernatant
Method in brief: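 Yeast INVSc1 culture supernatants containing secreted GLA variants were mixed with bovine serum (20:80) and held 1 h at 37° C. Serum-treated samples then reacted with MUGal (4 mM stock) in citrate/McIlvaine buffer (pH 4.3/4.8) for 180 min at 37° C., were quenched with sodium carbonate, and read by fluorescence (Ex 355, Em 448 nm).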

[2] = HTP-analysis of supernatants pretreated with acid (MUGal hydrolysis); conditions: challenge at pH 4.0; activity of the variant/activity of Rd3BB (SEQ ID NO: 13); yeast culture supernatant
Method in brief: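 Supernatants from INVSc1 yeast secreting GLA variants were challenged at 37° C. for 1-3 h in McIlvaine buffer at pH 3.3-4.3. Residual activity was then measured on 4 mM MUGal substrate stock at pH 4.8 with citrate buffer pH 4.3, over 30-180 min at 37° C. Reactions were quenched with sodium carbonate and read by fluorescence (Ex 355/Em 448 nm).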

[3] = HTP-analysis of supernatants pretreated with base (MUGal hydrolysis); conditions: challenge at pH 8.2; activity of the variant/activity of Rd3BB (SEQ ID NO: 13); yeast culture supernatant
Method in brief: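 GLA variants were secreted by transformed INVSc1 yeast grown 66-84 h at 30° C. Supernatants were exposed to neutral-to-basic buffers (pH 7.0-9.7) at 37° C for 1-18 h, then assayed with MUGal in acidic citrate/McIlvaine buffer, with fluorescence read after quenching.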

[4] = HTP-analysis of yeast culture supernatants, no challenge (MUGal hydrolysis); conditions: activity of the variant/activity of Rd3BB (SEQ ID NO: 13), yeast culture supernatant
Method in brief: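 GLA variants were expressed in INVSc1 yeast grown in SD-Ura broth with glucose at 30° C., and culture supernatants were collected after 66-84 h. Supernatant was mixed with McIlvaine buffer pH 4.8 and MUGal (2 mM stock) in 50 mM citrate, 200 mM KCl, pH 4.6, incubated at 37° C. for 30-180 minutes, then quenched with sodium carbonate.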

Row | Molecule | Relative Activity of GLA Variants After Challenge with Serum [1] | Relative Activity of GLA Variants After Challenge at pH 4.0 [2] | Relative Activity of GLA Variants After Challenge at pH 8.2 [3] | Relative Activity of GLA Variants After No Challenge (NC) [4]
1 | 353 (protein, Synthetic Polypeptide sequence of Variant No. 353 of mature Human GLA) LDNGLARTPTMGWLHWERFMCNLDCQEEPDSCISEKLFMEMAERMVSEGWKDAGYEYLCIDDCWMAPQRDSEGRLQADPQRFPHGIRQLANYVHSKGLKFGIYADVGNKTCAGFPGSFGYYDIDAQTFADWGVDLLKFDGCYCDSLENLADGYKHMSLALNRTGRSIVYSCEWPLYMWPFQKPNYTEIRQYCNHWRNFADIDDSWASIKSILDWTSFNQETIVDVAGPGGWNDPDMLVIGNFGLSWNQQVTQMALWAIMAAPLFMSNDLRHISPQAKALLQDKDVIAINQDPLGKQGYQLRQGDNFEVWERPLSGLAWAVAIINRQEIGGPRSYTIAVASLGKGVACNPACFITQLLPVKRKLGLYNWTSRLKSHVNPTGTVLLQLENTMQMSLKDLL | + (+ = 0.5 to 1.5 relative activity over Rd3BB (SEQ ID NO: 13)) | − (− = <0.5 relative activity to Rd3BB (SEQ ID NO: 13)) | − (− = <0.5 relative activity to Rd3BB (SEQ ID NO: 13)) | − (− = <0.5 relative activity to Rd3BB (SEQ ID NO: 13))
2 | 355 (protein, Synthetic Polypeptide sequence of Variant No. 355 of mature Human GLA) LDNGLARTPTMGWLHWERFMCNLDCQEEPDSCISEKLFMEMAERMVSEGWKDAGYEYLCIDDCWMAPQRDSEGRLQADPQRFPHGIRQLANYVHSKGLKFGIYADVGNKTCAGFPGSFGYYDIDAQTFADWGVDLLKFDGCYCDSLENLADGYKHMSLALNRTGRSIVYSCEWPLYMWPFQKPNYTEIRQYCNHWRNFADIDDSWASIKSILDWTSFNQETIVDVAGPGGWNDPDMLVIGNFGLSWDQQVTQMALWAIMAAPLFMSNDLRHISPQAKALLQDKDVIAINQDPLGKQGYQLRQGDNFEVWERPLSGLAWAVAIINRQEIGGPRSYTIAVASLGDGVACNPACFITQLLPVKRKLGFYNWTSRLKSHVNPTGTVLLQLENTMQMSLKDLL | + (+ = 0.5 to 1.5 relative activity over Rd3BB (SEQ ID NO: 13)) | ++ (++ = >1.5 to 2.5 relative activity over Rd3BB (SEQ ID NO: 13)) | ++ (++ = >1.5 to 2.5 relative activity over Rd3BB (SEQ ID NO: 13)) | + (+ = 0.5 to 1.5 relative activity over Rd3BB (SEQ ID NO: 13))
3 | 358 (protein, Synthetic Polypeptide sequence of Variant No. 358 of mature Human GLA) LDNGLARTPTMGWLHWERFMCNLDCQEEPDSCISEKLFMEMAERMVSEGWKDAGYEYLCIDDCWMAPQRDSEGRLQADPQRFPHGIRQLANYVHSKGLKFGIYADVGNKTCAGFPGSFGYYDIDAQTFADWGVDLLKFDGCYCDSLENLADGYKHMSLALNRTGRSIVYSCEWPLYMWPFQKPNYTEIRQYCNHWRNFADIDDSWASIKSILDWTSFNQETIVDVAGPGGWNDPDMLVIGNFGLSWDQQVTQMALWAIMAAPLFMSNDLRHISPQAKALLQDKDVIAINQDPLGKQGYQLRKGDNFEVWERPLSGLAWAVAIINRQEIGGPRSYTIAVASLGKGVACNPACFITQLLPVKRKLGFYNWTSRLKSHINPTGTVLLQLENTMQMSLKDLL | + (+ = 0.5 to 1.5 relative activity over Rd3BB (SEQ ID NO: 13)) | + (+ = 0.5 to 1.5 relative activity over Rd3BB (SEQ ID NO: 13)) | ++ (++ = >1.5 to 2.5 relative activity over Rd3BB (SEQ ID NO: 13)) | + (+ = 0.5 to 1.5 relative activity over Rd3BB (SEQ ID NO: 13))
4 | 356 (protein, Synthetic Polypeptide sequence of Variant No. 356 of mature Human GLA) LDNGLARTPTMGWLHWERFMCNLDCQEEPDSCISEKLFMEMAERMVSEGWKDAGYEYLCIDDCWMAPQRDSEGRLQADPQRFPHGIRQLANYVHSKGLKFGIYADVGNKTCAGFPGSFGYYDIDAQTFADWGVDLLKFDGCYCDSLENLADGYKHMSLALNRTGRSIVYSCEWPLYMWPFQKPNYTEIRQYCNHWRNFADIDDSWASIKSILDWTSFNQETIVDVAGPGGWNDPDMLVIGNFGLSWDQQVTQMALWAIMAAPLFMSNDLRHISPQAKALLQDKDVIAINQDPLGKQGYQLRKGDNFEVWERPLSGLAWAVAIINRQEIGGPRSYTIAVASLGKGVACNPACFITQLLPVKRKLGFYNWTSRLKSHINPTGTVLLQLENTMQMSLKDLL | + (+ = 0.5 to 1.5 relative activity over Rd3BB (SEQ ID NO: 13)) | + (+ = 0.5 to 1.5 relative activity over Rd3BB (SEQ ID NO: 13)) | ++ (++ = >1.5 to 2.5 relative activity over Rd3BB (SEQ ID NO: 13)) | + (+ = 0.5 to 1.5 relative activity over Rd3BB (SEQ ID NO: 13))
5 | 354 (protein, Synthetic Polypeptide sequence of Variant No. 354 of mature Human GLA) LDNGLARTPTMGWLHWERFMCNLDCQEEPDSCISEKLFMEMAERMVSEGWKDAGYEYLCIDDCWMAPQRDSEGRLQADPQRFPHGIRQLANYVHSKGLKFGIYADVGNKTCAGFPGSFGYYDIDAQTFADWGVDLLKFDGCYCDSLENLADGYKHMSLALNRTGRSIVYSCEWPLYMWPFQKPNYTEIRQYCNHWRNFADIDDSWASIKSILDWTSFNQETIVDVAGPGGWNDPDMLVIGNFGLSWNQQVTQMALWAIMAAPLFMSNDLRHISPQAKALLQDKDVIAINQDPLGKQGYQLRQGDNFEVWERPLSGLAWAVAIINRQEIGGPRSYTIAVASLGKGVACNPACFITQLLPVKRKLGLYNWTSRLKSHINPTGTVLLQLENTMQMSLKDLL | + (+ = 0.5 to 1.5 relative activity over Rd3BB (SEQ ID NO: 13)) | + (+ = 0.5 to 1.5 relative activity over Rd3BB (SEQ ID NO: 13)) | + (+ = 0.5 to 1.5 relative activity over Rd3BB (SEQ ID NO: 13)) | − (− = <0.5 relative activity to Rd3BB (SEQ ID NO: 13))
6 | 357 (protein, Synthetic Polypeptide sequence of Variant No. 357 of mature Human GLA) LDNGLARTPTMGWLHWERFMCNLDCQEEPDSCISEKLFMEMAERMVSEGWKDAGYEYLCIDDCWMAPQRDSEGRLQADPQRFPHGIRQLANYVHSKGLKFGIYADVGNKTCAGFPGSFGYYDIDAQTFADWGVDLLKFDGCYCDSLENLADGYKHMSLALNRTGRSIVYSCEWPLYMWPFQKPNYTEIRQYCNHWRNFADIDDSWASIKSILDWTSFNQETIVDVAGPGGWNDPDMLVIGNFGLSWDQQVTQMALWAIMAAPLFMSNDLRHISPQAKALLQDKDVIAINQDPLGKQGYQLRKGDNFEVWERPLSGLAWAVAVINRQEIGGPRSYTIAVASLGKGVACNPACFITQLLPVKRKLGFYNWTSRLKSHVNPTGTVLLQLENTMQMSLKDLL | + (+ = 0.5 to 1.5 relative activity over Rd3BB (SEQ ID NO: 13)) | ++ (++ = >1.5 to 2.5 relative activity over Rd3BB (SEQ ID NO: 13)) | +++ (+++ = >2.5 relative activity over Rd3BB (SEQ ID NO: 13)) | + (+ = 0.5 to 1.5 relative activity over Rd3BB (SEQ ID NO: 13))
7 | 296 (protein, Synthetic Polypeptide sequence of Variant No. 296 of mature Human GLA) LDNGLARTPTMGWLHWERFMCNLDCQEEPDSCISEKLFMEMAELMVSEGWKDAGYEYLCIDDCWMTPQRDSEGRLQADPQRFPHGIRQLANYVHSKGLKLGIYADVGNKTCAGFPGSFGYYDIDAQTFADWGVDLLKFDGCYCDSLENLADGYKHMSLALNRTGRSIVYSCEWPLYMWPFQKPNYTEIRQYCNHWRNFADIDDSWASIKSILDWTSRNQERIVDVAGPGGWNDPDMLVIGNFGLSWNQQVTQMALWAIMAAPLFMSNDLRHISPQAKALLQDKDVIAINQDPLGKQGYQLRQGDNFEVWERPLSGDAWAVAIINRQEIGGPRSYTIPVASLGGGVACNPGCFITQLLPVKRKLGFYNWTSRLKSHINPTGTVLLQLENTMQMSLKDLL | + (+ = 0.5 to 1.5 relative activity over Rd3BB (SEQ ID NO: 13)) | − (− = <0.5 relative activity to Rd3BB (SEQ ID NO: 13)) | − (− = <0.5 relative activity to Rd3BB (SEQ ID NO: 13)) | + (+ = 0.5 to 1.5 relative activity over Rd3BB (SEQ ID NO: 13))

From patent US11278600B2, “Human alpha-galactosidase variants” (Codexis, Inc., priority 2014, dated 2022)
